Experimental data taken from patent US20170044609.
Read-outs that look alike come from different tables or passages of the source.

Key:
[1] = target: SHARP (SPEN) (Mus musculus) (UniProt Q62504); details: UV crosslinked RIP-qPCR
RBM15 (Mus musculus) = details: UV crosslinked RIP; RAP-MS
MYEF2 (Mus musculus) = details: UV crosslinked RIP; RAP-MS
CELF1 (Mus musculus) = details: UV crosslinked RIP; RAP-MS
RALY = details: UV crosslinked RIP; RAP-MS
hnRNPC = details: UV crosslinked RIP; RAP-MS
[2] = test system: ΔRS-LBR deletion of amino acids 71-90 (Homo sapiens); details: FLAG IP RT-qPCR, UV crosslinked
PTBP1 (Mus musculus) = details: UV crosslinked RIP; CLIP site 10859-11344
[3] = test system: SAF-A (hnRNPU) (Mus musculus); details: RAP-MS, UV crosslinked, denaturing
hnRNPM (Mus musculus) = details: RAP-MS, UV crosslinked, denaturing

UniProt Q62504, sequence (Q62504 whole entry): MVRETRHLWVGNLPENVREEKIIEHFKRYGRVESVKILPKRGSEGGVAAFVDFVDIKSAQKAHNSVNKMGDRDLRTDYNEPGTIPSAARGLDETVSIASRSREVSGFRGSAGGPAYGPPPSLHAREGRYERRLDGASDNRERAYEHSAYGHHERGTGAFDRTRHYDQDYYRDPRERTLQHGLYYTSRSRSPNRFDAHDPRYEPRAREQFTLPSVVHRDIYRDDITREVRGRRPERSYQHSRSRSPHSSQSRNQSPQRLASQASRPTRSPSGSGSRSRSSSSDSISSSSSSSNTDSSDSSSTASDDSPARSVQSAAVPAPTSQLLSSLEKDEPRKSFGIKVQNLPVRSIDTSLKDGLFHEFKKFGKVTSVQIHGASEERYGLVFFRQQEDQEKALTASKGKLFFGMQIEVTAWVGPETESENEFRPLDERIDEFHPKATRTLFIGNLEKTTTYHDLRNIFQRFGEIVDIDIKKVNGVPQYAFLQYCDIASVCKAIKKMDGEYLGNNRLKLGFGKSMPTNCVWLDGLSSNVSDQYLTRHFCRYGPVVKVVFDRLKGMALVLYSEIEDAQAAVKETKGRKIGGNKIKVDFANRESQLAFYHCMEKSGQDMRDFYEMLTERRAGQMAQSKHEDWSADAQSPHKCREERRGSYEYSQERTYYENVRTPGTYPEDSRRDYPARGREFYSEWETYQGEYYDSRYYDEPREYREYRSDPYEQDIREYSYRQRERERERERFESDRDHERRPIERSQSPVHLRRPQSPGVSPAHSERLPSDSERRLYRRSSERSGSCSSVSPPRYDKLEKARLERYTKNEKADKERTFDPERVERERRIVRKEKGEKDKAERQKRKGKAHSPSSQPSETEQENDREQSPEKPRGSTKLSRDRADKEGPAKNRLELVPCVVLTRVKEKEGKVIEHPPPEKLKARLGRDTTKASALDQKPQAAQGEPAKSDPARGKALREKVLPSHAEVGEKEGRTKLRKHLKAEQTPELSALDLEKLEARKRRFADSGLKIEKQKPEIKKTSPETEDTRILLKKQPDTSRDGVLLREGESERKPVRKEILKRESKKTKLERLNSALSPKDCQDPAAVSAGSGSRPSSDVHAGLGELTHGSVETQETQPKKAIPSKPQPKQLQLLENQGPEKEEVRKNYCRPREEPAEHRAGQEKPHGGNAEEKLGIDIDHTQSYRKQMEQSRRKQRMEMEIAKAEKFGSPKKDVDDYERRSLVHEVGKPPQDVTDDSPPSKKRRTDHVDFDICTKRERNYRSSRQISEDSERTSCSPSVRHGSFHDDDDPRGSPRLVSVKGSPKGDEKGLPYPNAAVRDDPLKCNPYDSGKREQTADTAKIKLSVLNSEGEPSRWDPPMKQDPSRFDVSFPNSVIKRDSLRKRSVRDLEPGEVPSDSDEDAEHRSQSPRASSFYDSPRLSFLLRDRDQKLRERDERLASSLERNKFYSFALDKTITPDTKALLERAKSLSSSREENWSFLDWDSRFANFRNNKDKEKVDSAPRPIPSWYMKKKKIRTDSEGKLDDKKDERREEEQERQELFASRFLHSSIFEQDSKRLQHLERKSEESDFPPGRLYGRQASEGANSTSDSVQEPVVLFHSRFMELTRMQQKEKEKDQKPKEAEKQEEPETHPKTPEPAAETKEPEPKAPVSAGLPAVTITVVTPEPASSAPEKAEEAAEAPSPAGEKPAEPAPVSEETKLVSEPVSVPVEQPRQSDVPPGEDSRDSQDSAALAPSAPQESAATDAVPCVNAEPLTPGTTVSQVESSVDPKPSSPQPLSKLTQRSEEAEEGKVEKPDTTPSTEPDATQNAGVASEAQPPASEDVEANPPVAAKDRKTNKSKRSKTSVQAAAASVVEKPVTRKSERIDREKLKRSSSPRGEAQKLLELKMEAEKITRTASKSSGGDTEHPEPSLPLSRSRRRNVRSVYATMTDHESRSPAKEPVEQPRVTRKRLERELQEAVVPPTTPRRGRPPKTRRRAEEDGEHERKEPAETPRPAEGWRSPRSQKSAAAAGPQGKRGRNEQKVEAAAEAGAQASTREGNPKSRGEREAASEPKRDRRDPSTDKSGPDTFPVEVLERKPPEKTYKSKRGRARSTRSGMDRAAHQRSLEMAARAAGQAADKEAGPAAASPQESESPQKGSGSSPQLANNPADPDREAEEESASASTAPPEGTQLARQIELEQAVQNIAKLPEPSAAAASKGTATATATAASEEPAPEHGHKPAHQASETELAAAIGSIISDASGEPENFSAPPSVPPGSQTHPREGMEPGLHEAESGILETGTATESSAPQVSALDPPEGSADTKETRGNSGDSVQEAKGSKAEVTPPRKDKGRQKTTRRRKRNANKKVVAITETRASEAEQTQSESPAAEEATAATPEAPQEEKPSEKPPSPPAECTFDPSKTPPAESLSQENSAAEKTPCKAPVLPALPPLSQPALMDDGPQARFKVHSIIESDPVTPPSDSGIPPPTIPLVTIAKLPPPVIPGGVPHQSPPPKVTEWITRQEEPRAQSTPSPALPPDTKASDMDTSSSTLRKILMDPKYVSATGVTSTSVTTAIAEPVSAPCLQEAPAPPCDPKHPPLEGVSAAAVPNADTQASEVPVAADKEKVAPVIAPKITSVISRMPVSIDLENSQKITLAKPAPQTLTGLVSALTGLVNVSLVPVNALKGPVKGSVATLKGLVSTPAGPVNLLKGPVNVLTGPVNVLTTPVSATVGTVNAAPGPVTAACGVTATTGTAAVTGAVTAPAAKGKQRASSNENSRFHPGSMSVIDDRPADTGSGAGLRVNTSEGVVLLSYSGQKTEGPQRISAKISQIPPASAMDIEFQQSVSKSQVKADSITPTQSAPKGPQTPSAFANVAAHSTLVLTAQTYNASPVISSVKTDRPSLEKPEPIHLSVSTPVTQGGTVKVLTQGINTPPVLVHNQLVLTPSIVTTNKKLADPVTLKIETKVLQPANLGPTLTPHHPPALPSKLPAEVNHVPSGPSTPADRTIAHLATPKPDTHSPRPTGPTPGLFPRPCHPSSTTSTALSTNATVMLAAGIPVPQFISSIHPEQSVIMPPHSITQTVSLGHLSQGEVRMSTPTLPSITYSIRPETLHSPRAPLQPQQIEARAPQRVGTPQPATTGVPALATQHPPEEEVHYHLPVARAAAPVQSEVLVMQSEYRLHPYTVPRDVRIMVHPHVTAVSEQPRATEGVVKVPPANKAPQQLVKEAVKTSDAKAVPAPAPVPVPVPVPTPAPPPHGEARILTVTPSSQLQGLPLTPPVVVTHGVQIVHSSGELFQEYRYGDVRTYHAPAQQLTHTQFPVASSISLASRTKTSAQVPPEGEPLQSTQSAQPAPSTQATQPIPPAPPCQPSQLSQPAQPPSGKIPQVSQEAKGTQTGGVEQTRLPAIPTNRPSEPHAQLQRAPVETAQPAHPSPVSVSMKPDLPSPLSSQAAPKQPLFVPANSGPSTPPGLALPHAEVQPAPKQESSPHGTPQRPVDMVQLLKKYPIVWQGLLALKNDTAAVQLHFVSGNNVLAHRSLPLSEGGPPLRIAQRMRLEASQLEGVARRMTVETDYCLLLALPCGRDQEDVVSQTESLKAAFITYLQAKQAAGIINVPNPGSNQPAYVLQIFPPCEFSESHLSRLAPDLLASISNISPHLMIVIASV

| Substance | binding signal (fold over IgG) ([1]; female ES cells) | binding signal (fold over input) (RBM15 (Mus musculus)) | binding signal (fold over input) (MYEF2 (Mus musculus)) | binding signal (fold over input) (CELF1 (Mus musculus)) | binding signal (fold over input) (RALY) | binding signal (fold over input) (hnRNPC) | binding signal (% reduced binding) [2] | binding signal (fold over IgG) ([1]; RA-treated female ES cells, CLIP site 317-1056) | binding signal (fold over input) (PTBP1 (Mus musculus)) | binding signal (SILAC ratio Xist/U1) [3] | binding signal (SILAC ratio Xist/U1) (hnRNPM (Mus musculus)) |
| --- | --- | --- | --- | --- | --- | --- | --- | --- | --- | --- | --- |
| 45S pre-rRNA | < 1 |  |  |  |  |  |  |  |  |  |  |
| Xist lncRNA |  | > 4 | > 4 | > 4 | > 4 | > 4 | 97 | > 45 | > 4 | > 3 | > 3 |
| Neat1 lncRNA | < 1 |  |  |  |  |  |  |  |  |  |  |
